Patent publication US10941182 (Amgen, dated 2021)
Starred links: 1 amine or outer side, 2 acyl side, 3 side chain; linkers in the order of their positions; H or OH if unused. Non-standard residues stand in square brackets, D forms with d. *: point of attachment. C18 diacid = O=C(O)CCCCCCCCCCCCCCCCC(=O)*; dBip = N[C@H](Cc1ccc(-c2ccccc2)cc1)C(=O)O; Oic = O=C(O)[C@@H]1C[C@@H]2CCCC[C@@H]2N1; Phe(4-Cl) = N[C@@H](Cc1ccc(Cl)cc1)C(=O)O; dPhe(4-Cl) = N[C@H](Cc1ccc(Cl)cc1)C(=O)O; Heptadecanoyl = CCCCCCCCCCCCCCCCC(=O)*; Phe(4-I) = N[C@@H](Cc1ccc(I)cc1)C(=O)O; γGlu = O=C(O)[C@H](CCC(=O)[*:2])N[*:1]; Pentadecanoyl = CCCCCCCCCCCCCCC(=O)*; NMeR = CN[C@@H](CCCNC(=N)N)C(=O)O; Tridecanoyl = CCCCCCCCCCCCC(=O)*; hArg = N=C(N)NCCCC[C@H](N)C(=O)O; dTic = O=C(O)[C@H]1Cc2ccccc2CN1; Cha = N[C@@H](CC1CCCCC1)C(=O)O; NMeL = CN[C@@H](CC(C)C)C(=O)O; Nle = CCCC[C@H](N)C(=O)O; AEEA = NCCOCCOCC(=O)O; Aib = CC(C)(N)C(=O)O

T1: rat APJ receptor (rat, UniProt Q9JHG3 1-377)
T1 sequence (looked up): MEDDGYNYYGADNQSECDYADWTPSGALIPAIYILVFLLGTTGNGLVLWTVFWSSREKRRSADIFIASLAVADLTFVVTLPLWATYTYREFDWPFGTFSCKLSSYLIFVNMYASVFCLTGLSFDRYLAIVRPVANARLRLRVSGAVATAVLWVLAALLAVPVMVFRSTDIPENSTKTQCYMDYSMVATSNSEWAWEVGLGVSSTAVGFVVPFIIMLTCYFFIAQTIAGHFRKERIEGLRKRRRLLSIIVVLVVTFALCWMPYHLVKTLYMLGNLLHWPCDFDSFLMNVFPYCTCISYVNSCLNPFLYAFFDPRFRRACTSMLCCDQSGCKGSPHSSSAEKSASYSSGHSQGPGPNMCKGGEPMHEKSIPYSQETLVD

T2: human APJ receptor (human, UniProt P35414 1-380)
T2 sequence (looked up): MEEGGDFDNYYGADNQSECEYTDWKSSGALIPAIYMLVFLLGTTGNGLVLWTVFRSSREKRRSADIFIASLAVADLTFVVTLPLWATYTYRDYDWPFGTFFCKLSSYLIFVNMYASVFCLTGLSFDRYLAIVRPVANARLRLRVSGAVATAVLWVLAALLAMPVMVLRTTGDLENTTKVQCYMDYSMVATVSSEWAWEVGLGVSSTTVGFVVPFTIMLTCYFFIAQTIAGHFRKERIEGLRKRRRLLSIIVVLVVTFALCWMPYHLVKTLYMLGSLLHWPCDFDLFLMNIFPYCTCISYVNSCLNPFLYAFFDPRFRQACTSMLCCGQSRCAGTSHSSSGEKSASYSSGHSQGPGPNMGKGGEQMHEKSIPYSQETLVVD

B1: apelin polypeptide SEQ ID NO: 262 (peptide)
peptide: Pentadecanoyl-[γGlu][AEEA][AEEA][hArg][dR]Q[hArg]P[dR][NMeL]SHKG[Oic][Phe(4-I)]P[dBip]-OH
SMILES: CCCCCCCCCCCCCCC(=O)N[C@@H](CCC(=O)NCCOCCOCC(=O)NCCOCCOCC(=O)N[C@@H](CCCCNC(=N)N)C(=O)N[C@H](CCCNC(=N)N)C(=O)N[C@@H](CCC(N)=O)C(=O)N[C@@H](CCCCNC(=N)N)C(=O)N1CCC[C@H]1C(=O)N[C@H](CCCNC(=N)N)C(=O)N(C)[C@@H](CC(C)C)C(=O)N[C@@H](CO)C(=O)N[C@@H](Cc1c[nH]cn1)C(=O)N[C@@H](CCCCN)C(=O)NCC(=O)N1[C@H](C(=O)N[C@@H](Cc2ccc(I)cc2)C(=O)N2CCC[C@H]2C(=O)N[C@H](Cc2ccc(-c3ccccc3)cc2)C(=O)O)C[C@@H]2CCCC[C@@H]21)C(=O)O
B2: apelin polypeptide SEQ ID NO: 263 (peptide)
peptide: Heptadecanoyl-[γGlu][AEEA][AEEA][hArg][dR]Q[hArg]P[dR][NMeL]SHKG[Oic][Phe(4-I)]P[dBip]-OH
SMILES: CCCCCCCCCCCCCCCCC(=O)N[C@@H](CCC(=O)NCCOCCOCC(=O)NCCOCCOCC(=O)N[C@@H](CCCCNC(=N)N)C(=O)N[C@H](CCCNC(=N)N)C(=O)N[C@@H](CCC(N)=O)C(=O)N[C@@H](CCCCNC(=N)N)C(=O)N1CCC[C@H]1C(=O)N[C@H](CCCNC(=N)N)C(=O)N(C)[C@@H](CC(C)C)C(=O)N[C@@H](CO)C(=O)N[C@@H](Cc1c[nH]cn1)C(=O)N[C@@H](CCCCN)C(=O)NCC(=O)N1[C@H](C(=O)N[C@@H](Cc2ccc(I)cc2)C(=O)N2CCC[C@H]2C(=O)N[C@H](Cc2ccc(-c3ccccc3)cc2)C(=O)O)C[C@@H]2CCCC[C@@H]21)C(=O)O
B3: apelin polypeptide SEQ ID NO: 264 (peptide)
peptide: {C18 diacid}-[γGlu][AEEA][AEEA][hArg][dR]Q[hArg]P[dR][NMeL]SHKG[Oic][Phe(4-I)]P[dBip]-OH
SMILES: CC(C)C[C@@H](C(=O)N[C@@H](CO)C(=O)N[C@@H](Cc1c[nH]cn1)C(=O)N[C@@H](CCCCN)C(=O)NCC(=O)N1[C@H](C(=O)N[C@@H](Cc2ccc(I)cc2)C(=O)N2CCC[C@H]2C(=O)N[C@H](Cc2ccc(-c3ccccc3)cc2)C(=O)O)C[C@@H]2CCCC[C@@H]21)N(C)C(=O)[C@@H](CCCNC(=N)N)NC(=O)[C@@H]1CCCN1C(=O)[C@H](CCCCNC(=N)N)NC(=O)[C@H](CCC(N)=O)NC(=O)[C@@H](CCCNC(=N)N)NC(=O)[C@H](CCCCNC(=N)N)NC(=O)COCCOCCNC(=O)COCCOCCNC(=O)CC[C@H](NC(=O)CCCCCCCCCCCCCCCCC(=O)O)C(=O)O
B4: apelin polypeptide SEQ ID NO: 265 (peptide)
peptide: Tridecanoyl-[γGlu][AEEA][AEEA][dQ][hArg]P[dR][Cha]SHKG[Oic][Nle]P[dPhe(4-Cl)]-OH
SMILES: CCCCCCCCCCCCC(=O)N[C@@H](CCC(=O)NCCOCCOCC(=O)NCCOCCOCC(=O)N[C@H](CCC(N)=O)C(=O)N[C@@H](CCCCNC(=N)N)C(=O)N1CCC[C@H]1C(=O)N[C@H](CCCNC(=N)N)C(=O)N[C@@H](CC1CCCCC1)C(=O)N[C@@H](CO)C(=O)N[C@@H](Cc1c[nH]cn1)C(=O)N[C@@H](CCCCN)C(=O)NCC(=O)N1[C@H](C(=O)N[C@@H](CCCC)C(=O)N2CCC[C@H]2C(=O)N[C@H](Cc2ccc(Cl)cc2)C(=O)O)C[C@@H]2CCCC[C@@H]21)C(=O)O
B5: apelin polypeptide SEQ ID NO: 266 (peptide)
peptide: Tridecanoyl-[γGlu][AEEA][AEEA]Q[dR]P[dR][Cha]SHKG[Oic][Nle]P[dPhe(4-Cl)]-OH
SMILES: CCCCCCCCCCCCC(=O)N[C@@H](CCC(=O)NCCOCCOCC(=O)NCCOCCOCC(=O)N[C@@H](CCC(N)=O)C(=O)N[C@H](CCCNC(=N)N)C(=O)N1CCC[C@H]1C(=O)N[C@H](CCCNC(=N)N)C(=O)N[C@@H](CC1CCCCC1)C(=O)N[C@@H](CO)C(=O)N[C@@H](Cc1c[nH]cn1)C(=O)N[C@@H](CCCCN)C(=O)NCC(=O)N1[C@H](C(=O)N[C@@H](CCCC)C(=O)N2CCC[C@H]2C(=O)N[C@H](Cc2ccc(Cl)cc2)C(=O)O)C[C@@H]2CCCC[C@@H]21)C(=O)O
B6: apelin polypeptide SEQ ID NO: 267 (peptide)
peptide: Tridecanoyl-[γGlu][AEEA][AEEA]Q[dR]P[NMeR][Cha]SHKG[Oic][Nle]P[Phe(4-Cl)]-OH
SMILES: CCCCCCCCCCCCC(=O)N[C@@H](CCC(=O)NCCOCCOCC(=O)NCCOCCOCC(=O)N[C@@H](CCC(N)=O)C(=O)N[C@H](CCCNC(=N)N)C(=O)N1CCC[C@H]1C(=O)N(C)[C@@H](CCCNC(=N)N)C(=O)N[C@@H](CC1CCCCC1)C(=O)N[C@@H](CO)C(=O)N[C@@H](Cc1c[nH]cn1)C(=O)N[C@@H](CCCCN)C(=O)NCC(=O)N1[C@H](C(=O)N[C@@H](CCCC)C(=O)N2CCC[C@H]2C(=O)N[C@@H](Cc2ccc(Cl)cc2)C(=O)O)C[C@@H]2CCCC[C@@H]21)C(=O)O
B7: apelin polypeptide SEQ ID NO: 269 (peptide)
peptide: Tridecanoyl-[γGlu][AEEA][AEEA][dQ][hArg]P[dR][Cha]SHKG[Oic][Nle]P[dTic]-OH
SMILES: CCCCCCCCCCCCC(=O)N[C@@H](CCC(=O)NCCOCCOCC(=O)NCCOCCOCC(=O)N[C@H](CCC(N)=O)C(=O)N[C@@H](CCCCNC(=N)N)C(=O)N1CCC[C@H]1C(=O)N[C@H](CCCNC(=N)N)C(=O)N[C@@H](CC1CCCCC1)C(=O)N[C@@H](CO)C(=O)N[C@@H](Cc1c[nH]cn1)C(=O)N[C@@H](CCCCN)C(=O)NCC(=O)N1[C@H](C(=O)N[C@@H](CCCC)C(=O)N2CCC[C@H]2C(=O)N2Cc3ccccc3C[C@@H]2C(=O)O)C[C@@H]2CCCC[C@@H]21)C(=O)O
B8: apelin polypeptide SEQ ID NO: 270 (peptide)
peptide: Tridecanoyl-[γGlu][AEEA][AEEA][dQ][hArg]P[dR][Cha]SHKG[Oic][Nle][Aib][Phe(4-Cl)]-OH
SMILES: CCCCCCCCCCCCC(=O)N[C@@H](CCC(=O)NCCOCCOCC(=O)NCCOCCOCC(=O)N[C@H](CCC(N)=O)C(=O)N[C@@H](CCCCNC(=N)N)C(=O)N1CCC[C@H]1C(=O)N[C@H](CCCNC(=N)N)C(=O)N[C@@H](CC1CCCCC1)C(=O)N[C@@H](CO)C(=O)N[C@@H](Cc1c[nH]cn1)C(=O)N[C@@H](CCCCN)C(=O)NCC(=O)N1[C@H](C(=O)N[C@@H](CCCC)C(=O)NC(C)(C)C(=O)N[C@@H](Cc2ccc(Cl)cc2)C(=O)O)C[C@@H]2CCCC[C@@H]21)C(=O)O

What was measured:
rat APJ receptor = biological target: T1, rat APJ receptor; experiment: cell-based or functional assay
human APJ receptor = biological target: T2, human APJ receptor; experiment: cell-based or functional assay

Binder	EC50 Rat APJ Receptor (rat APJ receptor) [nM]	EC50 Human APJ Receptor (human APJ receptor) [nM]
B1	6.71	4.42
B2	5.91	3.99
B3	193	145
B4	14.5	1.2
Ac-[hArg][hArg]Q[dR]P[dR][NMeL]SHKG[Oic][Phe(4-I)]P[dBip]-OH [apelin polypeptide SEQ ID NO: 20]	0.706	0.189
B5	33.2	5.81
B6	17.6	0.753
B7	52.3	73
B8	1.49	1.76
